Common to all, as to assay: FRET or BRET; FLIM-FRET in HEK-293 T cells 48 h after co-transfection; AcGFP donor on YULINK (full-length or truncated), DsRed acceptor on the partner; mean fluorescence lifetime τ of AcGFP and FRET efficiency E; AcGFP-YULINK alone about 2.71 ns
One experiment deals with AcGFP-YULINKΔN (human).
In the next experiment the target is AcGFP-YULINKΔC (human).
The target of experiment [1] is T1, AcGFP-YULINK (full-length) (human, UniProt Q9NXC5-1 1-875).
T1 construct: YULINK, full-length, conjugated with AcGFP; also called full-length AcGFP-YULINK; source: HEK-293 T, co-transfected, in live cells
T1 sequence (looked up): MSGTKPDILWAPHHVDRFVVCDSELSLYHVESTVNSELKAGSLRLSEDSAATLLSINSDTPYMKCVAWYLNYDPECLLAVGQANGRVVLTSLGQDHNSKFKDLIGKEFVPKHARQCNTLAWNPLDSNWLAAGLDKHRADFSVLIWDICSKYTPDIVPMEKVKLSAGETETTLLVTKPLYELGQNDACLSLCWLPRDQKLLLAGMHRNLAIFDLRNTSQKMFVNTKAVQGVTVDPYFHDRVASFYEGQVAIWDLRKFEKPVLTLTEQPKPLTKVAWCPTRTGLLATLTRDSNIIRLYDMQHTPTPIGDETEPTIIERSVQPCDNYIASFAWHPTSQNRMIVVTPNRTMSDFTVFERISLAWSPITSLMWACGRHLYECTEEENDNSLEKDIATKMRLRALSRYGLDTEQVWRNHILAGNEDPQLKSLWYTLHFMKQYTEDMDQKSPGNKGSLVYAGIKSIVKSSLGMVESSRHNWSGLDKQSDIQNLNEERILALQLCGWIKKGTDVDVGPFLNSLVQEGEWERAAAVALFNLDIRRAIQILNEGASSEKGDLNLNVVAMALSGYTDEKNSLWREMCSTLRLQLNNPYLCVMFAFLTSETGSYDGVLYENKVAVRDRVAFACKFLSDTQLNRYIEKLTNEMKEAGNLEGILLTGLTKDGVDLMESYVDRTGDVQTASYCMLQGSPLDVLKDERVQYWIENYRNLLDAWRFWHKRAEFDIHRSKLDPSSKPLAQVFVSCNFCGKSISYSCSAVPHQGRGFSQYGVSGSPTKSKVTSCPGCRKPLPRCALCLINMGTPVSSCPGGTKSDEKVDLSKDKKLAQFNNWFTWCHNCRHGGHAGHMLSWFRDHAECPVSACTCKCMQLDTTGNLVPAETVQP
Conditions: partners not purified.

In the case of “DsRed-TICAM2 (from UniProt Q86XR7 1-235) (natural protein)”, in the experiment with AcGFP-YULINKΔN (human), the FRET efficiency E was determined as 19.6% and the mean fluorescence lifetime τ of the donor amounted to 2.18 ns. Also, in the experiment with AcGFP-YULINKΔC (human), the FRET efficiency E was 17.7% and the mean fluorescence lifetime τ of the donor stood at 2.23 ns.
In the experiment with AcGFP-YULINKΔN (human), “DsRed-RAB33B (from UniProt Q9H082 1-229) (natural protein)” had an FRET efficiency E of 36.5% and a mean fluorescence lifetime τ of the donor of 1.72 ns.

B1: DsRed-RAB33B (natural protein, human, UniProt Q9H082 1-229, looked up)
chain: MAEEMESSLEASFSSSGAVSGASGFLPPARSRIFKIIVIGDSNVGKTCLTYRFCAGRFPDRTEATIGVDFRERAVEIDGERIKIQLWDTAGQERFRKSMVQHYYRNVHAVVFVYDMTNMASFHSLPSWIEECKQHLLANDIPRILVGNKCDLRSAIQVPTDLAQKFADTHSMPLFETSAKNPNDNDHVEAIFMTLAHKLKSHKPLMLSQPPDNGIILKPEPKPAMTCWC
notes: RAB33B conjugated with DsRed; source: HEK-293 T, co-transfected, in live cells
Regarding B1, in experiment [1], the “FRET efficiency E” value stood at 8.1% and the “mean fluorescence lifetime τ of the donor” value turned out to be 2.49 ns.

B2: DsRed-EPS15 (natural protein, human, UniProt P42566 1-896, looked up)
chain: MAAAAQLSLTQLSSGNPVYEKYYRQVDTGNTGRVLASDAAAFLKKSGLPDLILGKIWDLADTDGKGILNKQEFFVALRLVACAQNGLEVSLSSLNLAVPPPRFHDTSSPLLISGTSAAELPWAVKPEDKAKYDAIFDSLSPVNGFLSGDKVKPVLLNSKLPVDILGRVWELSDIDHDGMLDRDEFAVAMFLVYCALEKEPVPMSLPPALVPPSKRKTWVVSPAEKAKYDEIFLKTDKDMDGFVSGLEVREIFLKTGLPSTLLAHIWSLCDTKDCGKLSKDQFALAFHLISQKLIKGIDPPHVLTPEMIPPSDRASLQKNIIGSSPVADFSAIKELDTLNNEIVDLQREKNNVEQDLKEKEDTIKQRTSEVQDLQDEVQRENTNLQKLQAQKQQVQELLDELDEQKAQLEEQLKEVRKKCAEEAQLISSLKAELTSQESQISTYEEELAKAREELSRLQQETAELEESVESGKAQLEPLQQHLQDSQQEISSMQMKLMEMKDLENHNSQLNWCSSPHSILVNGATDYCSLSTSSSETANLNEHVEGQSNLESEPIHQESPARSSPELLPSGVTDENEVTTAVTEKVCSELDNNRHSKEEDPFNVDSSSLTGPVADTNLDFFQSDPFVGSDPFKDDPFGKIDPFGGDPFKGSDPFASDCFFRQSTDPFATSSTDPFSAANNSSITSVETLKHNDPFAPGGTVVAASDSATDPFASVFGNESFGGGFADFSTLSKVNNEDPFRSATSSSVSNVVITKNVFEETSVKSEDEPPALPPKIGTPTRPCPLPPGKRSINKLDSPDPFKLNDPFQPFPGNDSPKEKDPEIFCDPFTSATTTTNKEADPSNFANFSAYPSEEDMIEWAKRESEREEEQRLARLNQQEQEDLELAIALSKSEISEA
notes: EPS15 conjugated with DsRed; also called DsRed-ESP15; source: HEK-293 T, co-transfected, in live cells
Regarding B2, in experiment [1], the “FRET efficiency E” value stood at 11.4% and the “mean fluorescence lifetime τ of the donor” value stood at 2.4 ns.
